Earlier results as cited in paper PMC4067574.
Like-named read-outs stand apart in the source and are kept apart here.

What was measured:
C3b C3b (Homo sapiens) [1] = target: C3b C3b (Homo sapiens) (UniProt P01024)
C3b C3b (Homo sapiens) [2] = target: C3b C3b (Homo sapiens) (UniProt P01024); remark: listed apart in the source

Chain of C3b C3b (Homo sapiens) (P01024 566-670): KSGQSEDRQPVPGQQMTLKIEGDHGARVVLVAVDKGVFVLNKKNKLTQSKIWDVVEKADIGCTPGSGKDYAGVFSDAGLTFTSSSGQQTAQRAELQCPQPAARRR
Chain of complement factor H rFH1-4 N-terminal modules 1-4 (P08603 19-264): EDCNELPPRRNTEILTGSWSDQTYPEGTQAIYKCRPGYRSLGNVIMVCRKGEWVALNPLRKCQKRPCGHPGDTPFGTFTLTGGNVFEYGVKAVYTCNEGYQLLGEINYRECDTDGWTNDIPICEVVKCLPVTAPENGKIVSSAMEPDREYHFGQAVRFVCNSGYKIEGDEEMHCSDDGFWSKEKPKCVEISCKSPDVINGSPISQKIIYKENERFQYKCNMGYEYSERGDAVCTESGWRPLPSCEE
Chain of complement factor H C-terminal fragment C-terminal two modules (P08603 1103-1231): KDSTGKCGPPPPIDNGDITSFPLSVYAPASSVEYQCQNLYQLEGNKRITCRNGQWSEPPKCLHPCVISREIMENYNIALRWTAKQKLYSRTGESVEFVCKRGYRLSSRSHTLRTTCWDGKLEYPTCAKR

Kd (C3b C3b (Homo sapiens) [1])	Kd (C3b C3b (Homo sapiens) [2])	Substance
4 µM	–	complement factor H C-terminal fragment C-terminal two modules (from UniProt P08603)
–	10 µM	complement factor H rFH1-4 N-terminal modules 1-4 (from UniProt P08603)
